Measurements: US12365710B2, “HMGB1 protein derivatives for the removal of biofilms” (RESEARCH INSTITUTE AT NATIONWIDE CHILDREN'S HOSPITAL, priority 2018, dated 2025)

B1: B-linker Box: HMGB1 B Box with N- and C-terminal linker (80-179; 80 to 176 in b258), 97 amino acid (protein, UniProt P09429 80-179, looked up, fragment)
chain: PPKGETKKKFKDPNAPKRPPSAFFLFCSEYRPKIKGEHPGLSIGDVAKKLGEMWNNTAADDKQPYEKKAAKLKEKYEKDIAAYRAKGKPDAAKKGVVKAE
B2: mHMGB1: engineered C45S variant of full length rHMGB1 that mimics the reduced form of HMGB1 (protein, UniProt P09429 1-215, looked up, variant C45S)
chain: MGKGDPKKPRGKMSSYAFFVQTCREEHKKKHPDASVNFSEFSKKSSERWKTMSAKEKGKFEDMAKADKARYEREMKTYIPPKGETKKKFKDPNAPKRPPSAFFLFCSEYRPKIKGEHPGLSIGDVAKKLGEMWNNTAADDKQPYEKKAAKLKEKYEKDIAAYRAKGKPDAAKKGVVKAEKSKKKKEEEEDEEDEEDEEEEEDEEDEDEEEDDDDE
modifications: full-length
notes: engineered C45S variant of full length rHMGB1 that mimics the reduced form of HMGB1

Tested on: Klebsiella pneumoniae biofilms
Assay: in vitro disruption of pre-formed biofilms, LIVE/DEAD, CLSM and COMSTAT
Format: cell-based
Conditions: for disruption of established K. pneumoniae biofilms (average thickness, biomass): 200 nM added at 24 h, 16 h incubation; for % reduction in average thickness (AT), mean±SE / % reduction in biomass (BM), mean±SE: 200 nM added to pre-formed biofilms at 24 h, read at 40 h, vs untreated KP biofilms
Protocol: FIGS. 5A-5E: Anti-biofilm effect of HMGB1 variants on high priority bacterial pathogens. Indicated HMGB1 variants or antibodies against DNABII proteins (α-1HFEc 1gG, 1 μM) were added at 24 h to the respective preformed bacterial biofilms, in vitro. After 16 h of Incubation, biofilms were stained with LIVE/DEAD®, then visualized via confocal laser scanning microscopy. Images were analyzed by COMSTAT to calculate average thickness and comparison to control was plotted. (FIG. 5A) Full-length HMGB1 isoforms (200 nM unless otherwise indicated) added to UPEC, B. cenocepacia, NTHI, or ESKAPE pathogens. 800 nM rHMGB1 and 200 nM mHMGB1 were added for S. aureus (ESKAPE). 800 nM rHMGB1, 800 nM mHMGB1, or 3.3 μM of α-1HFEc 1gG were added for E. faecium (ESKAPE) and were incubated for 1 h as opposed to 16 h to avoid potential degradation by E. faecium proteases. (FIG. 5B) Representative images of UPEC biofilms incubated with increasing concentrations of rHMGB1. (FIG. 5C) Individual domains of HMGB1 (200 nM) were tested for anti-biofilm activity as above (dotted line indicates control values). Bars represent the SEM. Statistical significance compared to control was assessed with unpaired t-tests, *P<0.05. […] (FIGS. 5D-5E) HMGB1 and variants disrupt preformed Klebsiella pneumoniae biofilms. rHMGB1, HMGB1 C45S (mHMGB1), bovine HMGB1 (bHMGB1), B box, B Box C106S (mB Box), A Box, and A+B Box were added (200 nM) at 24 h to preformed K. pneumoniae biofilms. After 16 h of incubation, biofilms were stained with LIVE/DEAD®, then visualized via confocal laser scanning microscopy. Images were analyzed by COMSTAT to calculate average thickness and total biomass. Error bars represent the SEM. ***P<0.0001; ns=not significant.
An in vitro biofilm assay was used to test the effect of HMGB1 and its variants on established bacterial biofilms. Applicant expressed, (in E. coli) and purified >95% human recombinant full length HMGB1 (rHMGB1; 1-215), a C45S mutated variant (mHMGB1) and the HMGB1 domains A Box (1-89), A+B Boxes (1-176), B Box (80-179), and B Box C106S (mB Box) (FIG. 3). […] To evaluate the effect of HMGB1 and its variants as well as a commercially available native bovine HMGB1 (used as a control) on established bacterial biofilms, each protein was added (at 200 nM), to pre-formed Klebsiella pneumoniae biofilms after 24 h of growth. After a 16 h incubation (40 h total biofilm growth), the biofilms were stained with LIVE/DEAD® and analyzed using confocal laser scanning microscopy (CLSM) and COMSTAT analysis to calculate the average thickness and total biomass of the biofilms. […] The results of this study lead to a noteworthy observation that a single dose of these non-antimicrobial compounds was able to disrupt recalcitrant biofilms. In addition, the HMGB1 variants have disrupted every bacterial species tested to date, which includes Uropathogenic E. coli, Burkholderia cenocepacia, Nontypeable Haemophilus influenzae (FIG. 6). A single dose at this concentration released of bacteria from their protective shield makes them vulnerable to clearance by antibiotics and the immune system.
Klebsiella pneumoniae (KP), a common cause of nosocomial infections was used for all BBs disruption assays. Human recombinant full length HMGB1 (rHMGB1; 1-215), a C45S mutation variant (mHMGB1) and the HMGB1 domains A Box (1-89), B Box (90-176), AB Boxes (1-176), B-linker Box (80-179), and B-linker Box C106S were expressed (in E. coli) and purified to >95%. To evaluate the effect of rHMGB1 and the various domains on established BBs, each protein species (200 nM) was added to pre-formed BBs at 24 h. At 40 h the BBs were washed, stained with LIVE/DEAD®, visualized via confocal laser scanning microscopy and images were analyzed by COMSTAT to calculate average thickness and biomass.

Row | Molecule | disruption of established K. pneumoniae biofilms (average thickness, biomass) | % reduction in average thickness (AT), mean±SE | % reduction in biomass (BM), mean±SE
1 | rHMGB1: tagless human recombinant full length HMGB1 (1-215) expressed in E. coli | significantly disrupt | 44%±0.33 | 61%±0.01
2 | B1 | retained full anti-biofilm activity | 77%±0.03 | 67%±0.01
3 | B2 |  | 75%±0.04 | 80%±0.01
